Residue numbers refer to the chain shown, from its start.
B1: Y-Aib-EGT-αMeF(2F)-TSDK((2-[2-(2-Amino-ethoxy)-ethoxy]-acetyl)2-(γ-Glu)-CO-(CH2)12-CO2H)SI-αMeL-LD-Orn-K((2-[2-(2-Amino-ethoxy)-ethoxy]-acetyl)2-(γ-Glu)-CO-(CH2 … (peptide)
peptide: YXEGTXTSDKSIXLDXKAQXEFIXXLIEGGPSSGAPPPS
modifications: Aib2, αMeF(2F)6, K10(Z1), αMeL13, Orn16, K17(Z1), Aib20, D-Glu24, αMeY25, C-term NH2; Z1=AEEA2-(γ-Glu)-CO-(CH2)12-CO2H
B2: Y-Aib-EGT-αMeF(2F)-TSDY-Aib-I-αMeL-LD-Orn-QAQ-Aib-Orn-FIK((2-[2-(2-Amino-ethoxy)-ethoxy]-acetyl)3-(γ-Glu)-CO-(CH2)12-CO2H)-αMeY-LIK((2-[2-(2-Amino-ethoxy)-ethox … (peptide)
peptide: YXEGTXTSDYXIXLDXQAQXXFIKXLIKGGPSSGAPPPS
modifications: Aib2, αMeF(2F)6, Aib11, αMeL13, Orn16, Aib20, Orn21, K24(Z1), αMeY25, K28(Z1), C-term NH2; Z1=AEEA3-(γ-Glu)-CO-(CH2)12-CO2H
B3: Y-Aib-EGT-αMeF(2F)-TSD-4Pal-Aib-I-αMeL-LD-Orn-QAQ-Aib-Orn-FIK((2-[2-(2-Amino-ethoxy)-ethoxy]-acetyl)-(γ-Glu)-CO-(CH2)12-CO2H)-αMeY-LIK((2-[2-(2-Amino-ethoxy)-et … (peptide)
peptide: B2 peptide with Y10X
modifications: Aib2, αMeF(2F)6, 4Pal10, Aib11, αMeL13, Orn16, Aib20, Orn21, K24(Z1), αMeY25, K28(Z1), C-term NH2; Z1=AEEA-(γ-Glu)-CO-(CH2)12-CO2H
B4: Y-Aib-EGT-αMeF(2F)-TSD-4Pal-Aib-I-αMeL-LD-Orn-QAQ-Aib-EFIK((2-[2-(2-Amino-ethoxy)-ethoxy]-acetyl)3-(γ-Glu)-CO-(CH2)12-CO2H)-αMeY-LIK((2-[2-(2-Amino-ethoxy)-etho … (peptide)
peptide: B2 peptide with Y10X, X21E
modifications: Aib2, αMeF(2F)6, 4Pal10, Aib11, αMeL13, Orn16, Aib20, K24(Z1), αMeY25, K28(Z1), C-term NH2; Z1=AEEA3-(γ-Glu)-CO-(CH2)12-CO2H

How the values were obtained:
[1] = molecular target: T1, human GIP receptor (human) (UniProt P48546); assay: cell-based or functional assay
T1 sequence (looked up): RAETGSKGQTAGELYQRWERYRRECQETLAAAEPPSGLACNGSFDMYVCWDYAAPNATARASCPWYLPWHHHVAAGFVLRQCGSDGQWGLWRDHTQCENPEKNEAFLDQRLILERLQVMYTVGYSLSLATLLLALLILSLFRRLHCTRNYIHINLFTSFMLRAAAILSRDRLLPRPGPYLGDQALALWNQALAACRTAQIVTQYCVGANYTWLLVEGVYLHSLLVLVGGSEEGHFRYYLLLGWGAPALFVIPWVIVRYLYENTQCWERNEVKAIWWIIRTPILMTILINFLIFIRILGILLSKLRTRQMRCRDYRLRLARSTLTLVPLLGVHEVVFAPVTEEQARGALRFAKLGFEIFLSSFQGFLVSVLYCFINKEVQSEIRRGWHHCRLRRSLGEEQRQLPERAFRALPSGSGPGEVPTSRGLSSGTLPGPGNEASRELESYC

hGLP-1R = hGLP-1R (Homo sapiens, UniProt P43220); assay: cell-based or functional assay
[2] = molecular target: human glucagon receptor (human) (UniProt P47871); assay: cell-based or functional assay
human GLP-1 receptor = molecular target: T2, human GLP-1 receptor (human, UniProt P43220 24-463); assay: SPA competition vs [125I]-GLP-1, hGLP-1R membranes
T2 construct: whole, on cells; also called hGLP-1R; human glucagon-like peptide-1 receptor
Procedure: The binding buffer contains 25 mM HEPES, pH 7.4, 2.5 mM CaCl₂, 1 mM MgCl₂, 0.1% (w/v) bacitracin, 0.003% (w/v) TWEEN®-20, and Roche Complete™ Protease Inhibitors without EDTA.
(§1) Data are analyzed using four-parameter (curve maximum, curve minimum, IC₅₀, Hill slope) nonlinear regression routines (Genedata Screener, version 12.0.4, Genedata AG, Basal, Switzerland). […] Values for Kᵢ are reported as the geometric mean, with error expressed as the standard error of the mean (SEM) and n is equal to the number of independent replicates (determined in assays performed on different days). Geometric Means are calculated as follows: […]

human GIP receptor = molecular target: T3, human GIP receptor (human, UniProt P48546 22-466); assay: SPA competition vs [125I]-GIP, hGIPR membranes
T3 construct: whole, on cells; also called hGIPR; human glucose-dependent insulinotropic polypeptide receptor
T3 sequence (looked up): T1 sequence (looked up)
Procedure: The binding buffer contains 25 mM HEPES, pH 7.4, 2.5 mM CaCl₂, 1 mM MgCl₂, 0.1% (w/v) bacitracin, 0.003% (w/v) TWEEN®-20, and Roche Complete™ Protease Inhibitors without EDTA. […] Plates are sealed and mixed on a plate shaker (setting 6) for 1 minute and read with a PerkinElmer Trilux MicroBeta® scintillation counter after 2.5 to 12 hours of incubation/settling time at room temperature.
as §1

Molecule | cAMP EC50 (1.0% HSA) [1] | cAMP Emax (1.0% HSA) [1] | cAMP EC50 (1.0% HSA) (hGLP-1R) | cAMP Emax (1.0% HSA) (hGLP-1R) | cAMP EC50 (1.0% HSA) [2] | Ki (human GLP-1 receptor) | Ki (human GIP receptor)
Y-Aib-EGT-αMeF(2F)-TSD-4Pal-SI-αMeL-LD-Orn-IAQ-Aib-EFIK((2-[2-(2-Amino-ethoxy)-ethoxy]-acetyl)2-(γ-Glu)-CO-(CH2)12-CO2H)-αMeY-…((2-[2-(2-Amino-ethoxy)-ethoxyl-acetyl)2-(γ-Glu)-CO-(CH2)12-CO2H)-NH2 (peptide) | 3.55 nM | 95.9% | 40.1 nM | 98.8% | > 9950 nM | – | –
Y-Aib-EGT-αMeF(2F)-TSD-4Pal-SI-αMeL-LD-Orn-K((2-[2-(2-Amino-ethoxy)-ethoxy]-acetyl)2-(γ-Glu)-CO-(CH2)12-CO2H)AQ-Aib-EFI-(D-Glu)-αMeY-LIEGGK((2-[2-(2-Amino-ethoxy)-ethoxy]-acetyl)2-(γ-Glu)-CO-(CH2)12-CO2H)SSG-NH2 (peptide) | 1.22 nM | 75.5% | 66.6 nM | 97.3% | > 9950 nM | – | –
Y-Aib-EGT-αMeF(2F)-TSD-4Pal-SI-αMeL-LD-Orn-K((2-[2-(2-Amino-ethoxy)-ethoxy]-acetyl)2-(γ-Glu)-CO-(CH2)12-CO2H)AQ-Aib-EFI-(D-Glu)-αMeY-LIEGGK((2-[2-(2-Amino-ethoxy)-ethoxy]-acetyl)2-(γ-Glu)-CO-(CH2)12-CO2H)-NH2 (peptide) | 2.46 nM | 81.2% | 119 nM | 87.8% | > 9950 nM | – | –
Y-Aib-EGT-αMeF(2F)-TSD-4Pal-SI-αMeL-LD-Orn-K((εK)-(γ-Glu)-CO-(CH2)12-CO2H)AQ-Aib-EFI-(D-Glu)-αMeY-LIEGGK((εK)-(γ-Glu)-CO-(CH2)12-CO2H)-NH2 (peptide) | 2.19 nM | 85.6% | 24.3 nM | 107% | > 9950 nM | – | –
Y-Aib-EGT-αMeF(2F)-TSD-4Pal-SI-αMeL-LD-Orn-K((2-[2-(2-Amino-ethoxy)-ethoxy]-acetyl)2-(γ-Glu)-CO-(CH2)14-CH3)AQ-Aib-EFI-(D-Glu)K((2-[2-(2-Amino-ethoxy)-ethoxy]-acetyl)2-(γ-Glu)-CO-(CH2)14-CH3)…-NH2 (peptide) | 0.148 nM | 98.2% | 1.73 nM | 102% | > 9950 nM | – | –
Y-Aib-EGT-αMeF(2F)-TSD-4Pal-SI-αMeL-LD-Orn-K((2-[2-(2-Amino-ethoxy)-ethoxy]-acetyl)2-(γ-Glu)-CO-(CH2)12-CO2H)AQ-Aib-EFI-(D-Glu)-αMeY-LIEGGK((2-[2-(2-Amino-ethoxy)-ethoxy]-acetyl)2-(γ-Glu)-CO-(CH2)12-CO2H)SSG-Orn-PPP-Orn-NH2 (peptide) | 1.25 nM | 96.5% | 34.6 nM | 102% | > 9950 nM | – | –
B1 | – | – | – | – | – | 6.48 nM | 0.378 nM
B2 | – | – | – | – | – | 0.246 nM | 0.0249 nM
B3 | – | – | – | – | – | 0.224 nM | 0.023 nM
B4 | – | – | – | – | – | 0.433 nM | 0.0528 nM

Source: patent publication US20230265151A1, “GIP/GLP1 CO-AGONIST COMPOUNDS” (priority 2020, published 2023)
